Molecular target: T1, VipB protein (Vibrio cholerae, VCA0108) (Vibrio cholerae)
T1 construct: GenBank NP_232509; The experiments used strain 2740-80; also called 55 kDa band; Band A
T1 chain: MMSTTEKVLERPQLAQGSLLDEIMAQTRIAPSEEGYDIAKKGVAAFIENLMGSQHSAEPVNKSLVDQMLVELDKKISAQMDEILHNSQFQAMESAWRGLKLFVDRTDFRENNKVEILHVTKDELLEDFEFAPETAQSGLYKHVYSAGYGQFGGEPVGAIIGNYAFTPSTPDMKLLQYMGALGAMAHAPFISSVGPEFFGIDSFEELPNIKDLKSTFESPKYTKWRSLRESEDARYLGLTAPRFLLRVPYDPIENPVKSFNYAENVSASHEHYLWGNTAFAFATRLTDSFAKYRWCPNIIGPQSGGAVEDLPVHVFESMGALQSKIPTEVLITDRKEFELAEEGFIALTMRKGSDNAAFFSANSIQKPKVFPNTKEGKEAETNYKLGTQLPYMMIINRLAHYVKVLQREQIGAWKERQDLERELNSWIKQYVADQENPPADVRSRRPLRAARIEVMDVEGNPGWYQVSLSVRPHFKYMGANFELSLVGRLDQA
Assay: purified sheath separated by SDS-PAGE; bands identified by MS

B1: VipA protein (Vibrio cholerae, VCA0107) (other)
chain: MSKEGSVAPKERINIKYIPATGDAQAEVELPLKTLVVGDFKGHAEQTPLEERATVTVDKNNFEAVMRESELKITATVKNKLTDDENAELPVELNFKSLADFAPDAVASQVPELKKLIELREALVALKGPLGNIPAFRERLQSLLNSEESREKLLAELNLLSGQEEPQA
notes: GenBank NP_232508; The experiments used strain 2740-80; also called WT VipA; 20 kDa band
- binding result: binds

Reference: patent publication US20180147273A1 (Harvard, published 2018)
